Earlier results, collected in PMC2725201.
Where two headings read alike, the source gives them in different places. Values belong to the substance of their own block, whether it stands above or below them.

What was measured:
C3a C3a (Homo sapiens) = C3a C3a (Homo sapiens) (UniProt P01024)
C5a C5a (Homo sapiens) [1] = biological target: C5a C5a (Homo sapiens) (UniProt P01031)
C5a C5a (Homo sapiens) [2] = biological target: C5a C5a (Homo sapiens) (UniProt P01031); remark: listed apart in the source
[3] = biological target: C5a-desArg C5a-desArg (Homo sapiens) (UniProt P01031)
Sequence of C5a-desArg C5a-desArg (Homo sapiens) (P01031 678-750): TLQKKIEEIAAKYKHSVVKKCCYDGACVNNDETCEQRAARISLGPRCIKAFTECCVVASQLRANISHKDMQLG

Sequence of C5aR (P21730 whole entry): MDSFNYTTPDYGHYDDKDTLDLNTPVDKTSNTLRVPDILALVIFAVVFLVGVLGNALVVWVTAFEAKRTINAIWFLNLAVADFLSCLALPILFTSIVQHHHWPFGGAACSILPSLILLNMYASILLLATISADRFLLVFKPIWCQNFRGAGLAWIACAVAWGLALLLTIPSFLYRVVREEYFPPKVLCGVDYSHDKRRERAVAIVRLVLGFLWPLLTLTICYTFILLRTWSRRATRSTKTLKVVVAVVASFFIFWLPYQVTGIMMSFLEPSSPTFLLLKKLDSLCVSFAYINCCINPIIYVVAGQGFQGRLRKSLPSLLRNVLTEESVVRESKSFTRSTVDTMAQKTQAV
Sequence of C5a C5a (Homo sapiens) (P01031 675-754): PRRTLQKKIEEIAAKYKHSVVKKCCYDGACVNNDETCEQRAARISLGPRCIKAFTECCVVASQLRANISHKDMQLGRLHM
Sequence of C5L2 (Q9P296 whole entry): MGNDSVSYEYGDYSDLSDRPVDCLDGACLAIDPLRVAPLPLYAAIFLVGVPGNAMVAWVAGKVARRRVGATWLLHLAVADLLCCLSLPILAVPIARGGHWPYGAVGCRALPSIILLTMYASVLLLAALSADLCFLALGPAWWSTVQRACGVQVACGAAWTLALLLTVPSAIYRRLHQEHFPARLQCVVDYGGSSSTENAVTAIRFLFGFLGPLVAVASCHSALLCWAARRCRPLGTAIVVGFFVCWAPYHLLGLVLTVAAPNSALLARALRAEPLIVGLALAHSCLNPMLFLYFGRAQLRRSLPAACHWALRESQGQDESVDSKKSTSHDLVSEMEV
Sequence of C3aR (Q16581 whole entry): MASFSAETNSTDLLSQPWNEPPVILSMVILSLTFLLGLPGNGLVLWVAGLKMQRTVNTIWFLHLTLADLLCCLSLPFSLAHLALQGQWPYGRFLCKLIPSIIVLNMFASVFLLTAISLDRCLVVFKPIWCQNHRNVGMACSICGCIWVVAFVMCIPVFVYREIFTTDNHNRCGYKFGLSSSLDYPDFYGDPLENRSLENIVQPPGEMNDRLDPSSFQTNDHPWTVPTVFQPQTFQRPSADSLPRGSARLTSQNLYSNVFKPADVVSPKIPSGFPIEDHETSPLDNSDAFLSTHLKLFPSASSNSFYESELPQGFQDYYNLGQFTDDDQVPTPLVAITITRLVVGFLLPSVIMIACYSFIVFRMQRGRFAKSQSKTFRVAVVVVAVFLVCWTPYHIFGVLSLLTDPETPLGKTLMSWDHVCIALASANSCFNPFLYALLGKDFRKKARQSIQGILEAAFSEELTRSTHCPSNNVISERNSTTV
Sequence of C3a C3a (Homo sapiens) (P01024 669-751): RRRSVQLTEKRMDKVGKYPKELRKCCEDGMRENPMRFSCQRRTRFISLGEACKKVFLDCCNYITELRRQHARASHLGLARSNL

Kd (C3a C3a (Homo sapiens)): 1 nM
Substance: C3aR (from UniProt Q16581)

Kd (C5a C5a (Homo sapiens) [1]): 2.5 nM
Substance: C5L2 (from UniProt Q9P296)

Kd (C5a C5a (Homo sapiens) [2]): 1 nM
Kd [3]: 660 nM
Substance: C5aR (from UniProt P21730)
